# Measured values: patent publication US20200270125A1 (OMEROS, published 2020)
# T1: human MASP-3 CCP1-CCP2-SP fragment (human)
# T1 construct: limits of the assay construct are not restated; also called rMASP-3 (CCP1-CCP2-SP)
# T1 chain: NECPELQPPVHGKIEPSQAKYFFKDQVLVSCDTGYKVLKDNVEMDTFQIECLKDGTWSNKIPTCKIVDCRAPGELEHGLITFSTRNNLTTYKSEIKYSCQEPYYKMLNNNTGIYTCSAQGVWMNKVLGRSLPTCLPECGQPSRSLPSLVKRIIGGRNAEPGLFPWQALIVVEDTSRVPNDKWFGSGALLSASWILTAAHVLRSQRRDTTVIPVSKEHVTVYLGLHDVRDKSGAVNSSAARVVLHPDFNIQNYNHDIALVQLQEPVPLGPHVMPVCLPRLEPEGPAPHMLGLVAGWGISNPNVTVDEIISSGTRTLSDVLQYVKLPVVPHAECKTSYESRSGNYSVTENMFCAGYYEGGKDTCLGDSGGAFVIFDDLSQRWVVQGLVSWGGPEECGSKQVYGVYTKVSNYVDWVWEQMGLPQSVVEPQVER
# T2: human MASP-3 (construct not stated) (human)
# T2 construct: also called MASP-3 antigen
# T2 chain: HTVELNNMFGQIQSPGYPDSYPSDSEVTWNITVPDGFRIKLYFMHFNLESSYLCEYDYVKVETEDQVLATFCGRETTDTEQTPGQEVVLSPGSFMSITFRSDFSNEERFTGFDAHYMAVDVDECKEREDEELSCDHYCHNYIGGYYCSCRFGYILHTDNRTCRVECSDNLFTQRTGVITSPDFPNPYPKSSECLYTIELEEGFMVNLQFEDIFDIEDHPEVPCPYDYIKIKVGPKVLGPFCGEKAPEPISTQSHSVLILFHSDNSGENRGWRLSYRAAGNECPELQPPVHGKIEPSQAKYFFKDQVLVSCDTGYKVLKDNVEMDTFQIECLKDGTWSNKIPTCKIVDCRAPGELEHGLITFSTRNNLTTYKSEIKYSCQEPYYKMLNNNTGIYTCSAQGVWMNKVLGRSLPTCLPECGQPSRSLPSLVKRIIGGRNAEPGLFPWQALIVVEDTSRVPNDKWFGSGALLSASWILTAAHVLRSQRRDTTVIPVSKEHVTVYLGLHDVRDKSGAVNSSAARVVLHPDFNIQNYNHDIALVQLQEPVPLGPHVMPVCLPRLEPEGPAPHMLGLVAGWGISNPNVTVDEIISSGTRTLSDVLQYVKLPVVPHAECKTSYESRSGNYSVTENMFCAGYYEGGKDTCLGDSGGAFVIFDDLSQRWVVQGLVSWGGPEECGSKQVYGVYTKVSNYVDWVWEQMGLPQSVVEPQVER
# T3: recombinant full-length mouse MASP-3 (mouse)
# T3 construct: Entry is with leader; also called mouse full length MASP-3
# T3 chain: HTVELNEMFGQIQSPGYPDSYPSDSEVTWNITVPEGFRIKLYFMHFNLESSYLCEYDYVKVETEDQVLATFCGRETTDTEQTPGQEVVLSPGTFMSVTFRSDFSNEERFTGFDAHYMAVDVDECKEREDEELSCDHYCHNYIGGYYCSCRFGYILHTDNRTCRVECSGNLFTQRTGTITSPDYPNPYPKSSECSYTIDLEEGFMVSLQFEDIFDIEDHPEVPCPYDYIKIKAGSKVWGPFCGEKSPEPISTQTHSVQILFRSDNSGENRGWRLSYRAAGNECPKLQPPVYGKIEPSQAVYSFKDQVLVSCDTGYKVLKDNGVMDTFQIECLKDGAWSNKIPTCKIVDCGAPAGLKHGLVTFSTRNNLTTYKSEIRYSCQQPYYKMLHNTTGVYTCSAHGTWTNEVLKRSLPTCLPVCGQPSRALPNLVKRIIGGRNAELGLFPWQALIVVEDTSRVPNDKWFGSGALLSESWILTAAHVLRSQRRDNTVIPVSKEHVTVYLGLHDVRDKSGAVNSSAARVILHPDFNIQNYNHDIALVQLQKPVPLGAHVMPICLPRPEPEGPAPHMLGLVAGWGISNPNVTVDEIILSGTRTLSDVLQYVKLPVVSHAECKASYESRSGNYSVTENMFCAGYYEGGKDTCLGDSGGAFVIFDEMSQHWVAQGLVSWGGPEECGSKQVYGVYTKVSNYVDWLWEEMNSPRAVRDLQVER
# T4: recombinant human MASP-1A (S646A, CCP1-CCP2-SP fragment) (human, UniProt P48740 298-699, limits assumed)
# T4 chain: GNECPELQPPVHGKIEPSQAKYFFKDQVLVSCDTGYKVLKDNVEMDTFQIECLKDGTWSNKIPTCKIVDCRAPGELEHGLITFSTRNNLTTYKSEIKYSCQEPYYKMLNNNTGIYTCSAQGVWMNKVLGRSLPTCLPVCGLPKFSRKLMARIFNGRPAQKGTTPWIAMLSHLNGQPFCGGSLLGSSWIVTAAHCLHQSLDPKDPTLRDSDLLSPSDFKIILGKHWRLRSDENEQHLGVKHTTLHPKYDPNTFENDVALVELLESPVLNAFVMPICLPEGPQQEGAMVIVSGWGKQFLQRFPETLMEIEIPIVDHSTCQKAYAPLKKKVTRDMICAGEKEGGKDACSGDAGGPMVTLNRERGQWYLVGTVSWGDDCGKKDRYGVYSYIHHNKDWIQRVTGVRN
# T5: human MASP-1 (construct not stated) (human, UniProt P48740 20-699, limits assumed)
# T5 sequence: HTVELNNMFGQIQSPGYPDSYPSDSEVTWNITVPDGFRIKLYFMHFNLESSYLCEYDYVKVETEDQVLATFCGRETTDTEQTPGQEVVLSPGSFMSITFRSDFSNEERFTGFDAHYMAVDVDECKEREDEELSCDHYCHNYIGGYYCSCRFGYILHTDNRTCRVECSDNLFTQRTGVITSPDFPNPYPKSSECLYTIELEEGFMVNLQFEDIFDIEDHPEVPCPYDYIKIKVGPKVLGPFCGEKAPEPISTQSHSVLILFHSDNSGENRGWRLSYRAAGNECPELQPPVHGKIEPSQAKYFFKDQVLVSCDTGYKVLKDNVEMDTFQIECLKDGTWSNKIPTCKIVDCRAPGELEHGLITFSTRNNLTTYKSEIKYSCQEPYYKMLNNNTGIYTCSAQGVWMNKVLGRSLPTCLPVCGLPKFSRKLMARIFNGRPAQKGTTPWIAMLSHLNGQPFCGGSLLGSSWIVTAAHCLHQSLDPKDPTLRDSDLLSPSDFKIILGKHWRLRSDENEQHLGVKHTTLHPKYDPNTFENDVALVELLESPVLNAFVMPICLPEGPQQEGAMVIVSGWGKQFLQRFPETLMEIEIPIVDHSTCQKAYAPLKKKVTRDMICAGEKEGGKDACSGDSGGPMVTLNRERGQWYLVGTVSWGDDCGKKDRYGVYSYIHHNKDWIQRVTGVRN
# Assays:
# [1] = biological target: T1, human MASP-3 CCP1-CCP2-SP fragment; assay: sandwich ELISA, MASP-3 CCP1-CCP2-SP captured by αM3-259
# Procedure, shortened: (§1)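 Candidate MASP-3 antibodies incubated 1 h at room temperature on the prepared plate, then detected with mouse anti-human kappa-HRP for 1 h. Developed 5 min with TMB; absorbance read at 450 nm.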
# [2] = biological target: T1, human MASP-3 CCP1-CCP2-SP fragment; assay: cell-based or functional assay
# [3] = biological target: T1, human MASP-3 CCP1-CCP2-SP fragment; assay: sandwich ELISA: human MASP-3 CCP1-CCP2-SP captured on aM3-259, mAb detected with anti-human kappa-HRP, A450
# Method: The plate was then washed (PBS-T, 0.05%) and the candidate MASP-3 antibodies were added followed by incubation for one hour at room temperature. The plate was washed (PBS-T, 0.05%) and a detection antibody was added (mouse anti-human kappa-HRP, SouthernBiotech #9230-05) for one hour at room temperature. After another wash (PBS-T, 0.05%) the plate was developed (5 minutes) with OPT EIA TMB (BD Biosciences #555214). Absorbance reading at A450 was measured using the Spectramax M5e plate reader.
# [4] = biological target: T2, human MASP-3 (construct not stated); assay: not described at this place
# [5] = biological target: T2, human MASP-3 (construct not stated); assay: cell-based or functional assay
# [6] = biological target: T3, recombinant full-length mouse MASP-3; assay: sandwich ELISA, full-length mouse MASP-3 captured by αM3-259
# Procedure, shortened: as §1
# [7] = biological target: T6, recombinant human MASP-2 (CCP1-CCP2-SP fragment) (human, UniProt O00187 298-686, limits assumed); assay: ELISA: recombinant MASP-2 (CCP1-CCP2-SP) coated directly on the plate, A450
# T6 construct: domain: CCP1-CCP2-SP fragment
# Procedure, shortened: as §1
# [8] = biological target: T4, recombinant human MASP-1A (S646A, …); assay: ELISA: recombinant MASP-1A (S646A, CCP1-CCP2-SP) coated directly on the plate, A450
# Procedure, shortened: as §1
# [9] = biological target: T2, human MASP-3 (construct not stated); assay: cell-based or functional assay
# [10] = biological target: T2, human MASP-3 (construct not stated); assay: ELISA, monovalent Fab
# [11] = biological target: T2, human MASP-3 (construct not stated); assay: cross-species binding experiments
# [12] = biological target: T2, human MASP-3 (construct not stated); assay: cell-based or functional assay
# [13] = biological target: T5, human MASP-1 (construct not stated); assay: DTLacO screen
# T6 sequence (O00187 298-686 limits assumed): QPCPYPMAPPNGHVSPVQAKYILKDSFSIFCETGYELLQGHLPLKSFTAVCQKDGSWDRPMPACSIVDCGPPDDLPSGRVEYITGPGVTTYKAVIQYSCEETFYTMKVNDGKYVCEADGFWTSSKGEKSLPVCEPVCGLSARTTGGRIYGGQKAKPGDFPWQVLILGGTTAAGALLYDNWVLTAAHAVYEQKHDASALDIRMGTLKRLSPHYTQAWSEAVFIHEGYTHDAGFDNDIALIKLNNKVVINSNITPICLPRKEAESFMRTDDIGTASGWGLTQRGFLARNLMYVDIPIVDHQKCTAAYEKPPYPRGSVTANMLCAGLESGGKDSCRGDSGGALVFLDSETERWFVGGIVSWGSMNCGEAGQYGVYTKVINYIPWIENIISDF
Binder,EC50 [1] [nM],inhibition of MASP-3-dependent fluorogenic tripeptide (BOC-V-P-R-AMC) cleavage [2] [nM],EC50 [3] [nM],binding affinity [4] [pM],"Inhibition of Factor Bb Deposition on Zymosan (IC50 nM), 10% factor D-depleted human serum with pro-factor D [5] [nM]",EC50 [6] [nM],EC50 [10] [nM],avidity [11] [pM],binding result [13],binding result [7],binding result [8],further results
"MASP-3 mAb 4D5 (mouse-human chimeric IgG4) (antibody, V domains shown) VH: QVQLKQSGPELVKPGASVKLSCKASGYTFTTDDINWVKQRPGQGLEWIGWIYPRDDRTKYNDKFKDKATLTVDTSSNTAYMDLHSLTSEDSAVYFCSSLEDTYWGQGTLVAVSS VL: DIVMTQSPSSLAVSAGEKVTMTCKSSQSLLNSRTRKNYLAWYQQKPGQSPKLLIYWASTRESGVPDRFTGSGSGTDFSLTISSVQAEDLAVYYCKQSYNLYTFGGGTKLEIKR",0.058,27.5,0.113,≤ 500,0.4,0.098,–,–,–,no binding (tested: about 20 nM (log10 about 1.3)),no binding (tested: about 20 nM (log10 about 1.3)),"Inhibition of Rabbit Erythrocyte Lysis (IC50 nM), 10% factor D-depleted human serum [9]: 0.1 nM"
"4D5 Parental Fab (Fab, V domains shown, Monovalent Fab; also called 4D5 Fab) VH: QVQLKQSGPELVKPGASVKLSCKASGYTFTTDDINWVKQRPGQGLEWIGWIYPRDDRTKYNDKFKDKATLTVDTSSNTAYMDLHSLTSEDSAVYFCSSLEDTYWGQGTLVAVSS VL: DIVMTQSPSSLAVSAGEKVTMTCKSSQSLLNSRTRKNYLAWYQQKPGQSPKLLIYWASTRESGVPDRFTGSGSGTDFSLTISSVQAEDLAVYYCKQSYNLYTFGGGTKLEIKR",–,–,–,–,–,–,0.107,< 500,–,–,–,–
"10D12 Parental Fab (Fab, V domains shown, Monovalent Fab; also called 10D12 Fab) VH: QIQLVQSGPELKKPGETVKISCKASGYIFTSYGMSWVRQAPGKGLKWMGWINTYSGVPTYADDFKGRFAFSLETSARTPYLQINNLKNEDTATYFCARGGEAMDYWGQGTSVTVSS VL: not shown",–,–,–,–,–,–,0.108,< 500,–,–,–,–

# Further lines, with some results ahead:
EC50 [1] [nM],inhibition of MASP-3-dependent fluorogenic tripeptide (BOC-V-P-R-AMC) cleavage [2] [nM],EC50 [3] [nM],binding affinity [4] [pM],"Inhibition of Factor Bb Deposition on Zymosan (IC50 nM), 10% factor D-depleted human serum with pro-factor D [5] [nM]",EC50 [6] [nM],EC50 [10] [nM],avidity [11] [pM],binding result [13],Binder,binding result [7],binding result [8],further results
0.059,30.1,0.089,≤ 500,0.3,0.035,–,–,–,"MASP-3 mAb 13B1 (mouse-human chimeric IgG4) (antibody, V domains shown, also called mAb M3-1; M3-1) VH: QVQLKQSGAELMKPGASVKLSCKATGYTFTGKWIEWVKQRPGHGLEWIGEILPGTGSTNYNEKFKGKATFTADSSSNTAYMQLSSLTTEDSAMYYCLRSEDVWGTGTTVTVSS VL: DIVMTQSPSSLAVSAGEKVTMSCKSSQSLLNSRTRKNYLAWYQQKPGQSPKLLIYWASTRESGVPDRFTGSGSGTDFTLTISSVQAEDLAVYYCKQSYNIPTFGGGTKLEIKR",no binding (tested: about 20 nM (log10 about 1.3)),no binding (tested: about 20 nM (log10 about 1.3)),"IC50, factor Bb deposition on zymosan in 10% CFD-depleted human serum with pro-CFD (flow cytometry) [12]: 0.311 nM"
–,–,–,–,–,–,–,–,binds,"MASP-3 clone D14 (antibody, human IgG1, V domains shown, Chicken V regions from the DTLacO platform; also called mAbD14; mAb D14) VH: AVTLDESGGGLQTPGGALSLVCKASGFTFSSYAMHWVRQAPGKGLEWVAGIYKSGAGTNYAPAVKGRATISRDNGQSTVRLQLNNLRAEDTGTYYCAKTTGSGCSSGYRAEYIDAWGHGTEVIVSS VL: ALTQPASVSANPGETVKITCSGGGSYAGSYYYGWYQQKAPGSAPVTLIYYNNKRPSDIPSRFSGSLSGSTNTLTITGVRADDEAVYFCGSADNSGAAFGAGTTLTVL",–,–,–
–,–,–,–,–,–,–,–,binds,"MASP-1 clone 1E10 (antibody, human IgG1, V domains shown, Chicken V regions from the DTLacO platform; also called mAb 1E10; mAb1E10) VH: AVTLDESGGGLQTPGGALSLVCKASGFTFSSYDMVWVRQAPGKGLEFVAGISRNDGRYTEYGSAVKGRATISRDNGQSTVRLQLNNLRAEDTATYYCARDAGGSAYWFDAGQIDAWGHGTEVIVSS VL: ALTQPASVSANPGETVKITCSGGGSYAGSYYYGWYQQKAPGSAPVTLIYYNNKRPSDIPSRFSGSLSGSTNTLTITGVRADDEAVYFCGSADNSGAAFGAGTTLTVL",–,–,–
